From the Human Domainome abundance scans (Beltran et al. 2025)

B1: PMS1 protein homolog 1, residues 572 to 637; numbered along this chain, P54277 (parent)
chain: KKPMSASALFVQDHRPQFLIENPKTSLEDATLQIEELWKTLSEEEKLKYEEKATKDLERYNSQMKR

Variants of: B1
Test: abundance fitness (aPCA) (normalised: wild type 0, dead -1); higher = more abundant; growth selection in yeast, the domain comes from the species named
Conditions: Homo sapiens

Abundance fitness, by site and new letter:
S5: R -0.293 | I -0.336 | E -0.031 | L -0.283
A30: G -0.401 | H -0.34 | Q -0.439
E35: H -0.171 | P -0.14 | V -0.548 | W -0.774 | D -0.86 | I -0.33 | A -0.2 | N -0.389
S7: L -0.087 | C -0.28 | F -0.108 | T -0.122 | H -0.144 | Q 0.176 | E 0.017 | D 0.036 | M 0.235 | K 0.069 | W -0.388
Y49: P -0.581 | M -0.966 | E -0.819 | C -0.621 | V -0.847 | K -0.583 | W -0.013
K46: T -0.432 | F -1.21 | N -1.37 | Q -0.106 | V -0.431 | G -0.84 | A -0.395 | R -0.058
S42: E -0.101 | D -0.045 | T -0.078 | C -0.28 | W -1.34 | P -0.065
R15: K -0.38 | N -0.769 | M 0.07 | V 0.033 | S -0.41
L32: D -0.283 | M 0.043 | V -0.117 | E -0.144 | P -0.349 | I -0.172 | S -0.18 | Q -0.15 | R 0.019
T40: E -0.028 | W -0.253 | F -0.041 | L -0.114 | Y -0.387 | Q -0.094 | M -0.165
T25: R -0.317 | V 0.116 | F 0.201 | P -0.627 | W -0.531 | H -0.395 | Q -0.143
L47: H 0.032 | T 0.005 | E -0.184 | P -0.975 | D -0.157 | V 0.055
T31: D -0.11 | M -0.516 | L -0.433 | F -0.325
A6: R -0.637 | C -0.281 | E -0.607 | K -0.348
K52: E -0.059 | V -0.229 | R -0.041 | T -0.288 | Q -0.009 | W -0.33 | D -0.357 | H -0.272 | S -0.184 | P -0.38 | I -0.664 | G -0.213
Q12: T -0.54 | A 0.258
K1: V -0.191 | E -0.022 | C 0.184 | S -0.602 | R -0.216 | G -0.225
D56: K -0.353 | G -0.144 | W -0.258 | M -0.231 | R -0.128 | V -0.348 | I -0.306 | E 0.104
K39: H -0.205 | S -0.081 | P -0.252 | C -0.156 | D -0.308 | Q 0.017
K2: I -0.475 | C -0.095 | F -0.242 | H 0.115 | P -0.201 | S -0.201
K55: G -0.137 | N -0.103 | T -0.058 | C -0.086 | D -0.045
F10: G -0.791 | V -0.812 | D -0.487 | A -0.608 | Q -0.466 | K -0.368 | W -0.267 | S -0.422 | M -0.433 | P -0.686 | E -0.483 | L -0.731
K65: V -0.068 | L 0.029 | D 0.084 | M -0.237 | R -0.086 | T -0.264
L57: Y -0.18 | I -0.136 | N -0.224 | R -0.058 | T -0.19 | C -0.084 | G -0.14 | Q -0.115
L27: Q -0.532 | M -0.089 | E -0.538 | C -0.384 | P 0.057
L37: T -0.123 | Y -0.459 | P -0.995 | C -0.278 | S -0.083 | R -0.091
T54: L -0.009 | V -0.12 | N -0.045 | E 0.096 | C -0.164
Q33: W -0.696 | E -0.124 | S -0.23 | R -0.229 | T -0.454 | K -0.06 | D -0.24
E44: Q -0.142 | A -0.077 | S -0.05 | Y -0.317 | G -0.064 | W -0.433 | T -0.135
E43: G -0.09 | N 0.046 | Q 0.007 | I -0.133 | M -0.039 | Y -0.095 | K -0.236 | L -0.06 | V -0.026
N61: W -0.489 | Q -0.098 | M -0.128 | F -0.515
D13: C -0.66 | G -0.844
S62: G -0.151 | M -0.099 | K 0.049 | W -0.084 | C 0.12 | P -0.148 | D -0.115 | A -0.017 | H 0.021 | R -0.09
R66: F 0.095 | T 0.019 | C -0.113 | M 0.044 | E 0.031 | Y -0.069
S26: P -0.21 | R -0.282 | K -0.155 | V -0.654 | T -0.061
Q63: K 0.02 | C -0.096 | M -0.109 | F -0.036 | R -0.178
P3: W -0.545 | T 0.049 | A -0.464 | K -0.368
M4: E -0.002 | T -0.05 | V -0.091 | R -0.106 | H -0.044 | L -0.017
K48: M -0.115 | E -0.202 | Q -0.178 | F -0.121 | Y -0.078 | R -0.127 | N -0.375
L41: Q -0.052 | E -0.295 | K -0.317 | S -0.069 | I -0.202 | G -0.315 | M -0.145 | F -0.733 | N -0.501 | W -0.617 | H -0.467
M64: P -0.108 | A -0.059 | F -0.095 | C -0.205 | Y 0.035 | H 0.08 | E -0.195 | N -0.144 | D -0.32 | S -0.049
Y60: E -0.103 | N 0.022 | W -0.117 | G -0.046 | I -0.315 | M -0.339 | L -0.186 | P -0.109 | Q -0.092 | S 0.04
R59: H -0.085 | K -0.171 | I 0.088 | D 0.17 | W -0.126 | N -0.169 | V -0.021 | F -0.079
P16: C -0.357 | G -0.244 | L -0.401 | Y -0.198 | K -0.17 | A -0.06 | Q -0.041 | I -0.224 | E -0.087
E45: S -0.198 | A -0.258 | H -0.123 | K -0.244 | Q -0.142 | D -0.133 | W -0.78 | Y -0.787 | T -0.214
W38: V -0.504 | D 0.097 | G -0.304 | F -0.299
A53: L -0.432 | I -0.834 | D -0.498 | F -0.212
E58: W -0.456 | V -0.108 | M -0.169 | G -0.158 | Y -0.267
E51: Q -0.043 | V -0.088 | H -0.131 | W -0.286 | N -0.062
A8: L -0.288 | W -0.347 | D -0.162
D29: N -0.119
L9: V -0.2 | G -0.308 | A -0.61 | F -0.131 | M -0.167 | N -0.467 | Y -0.155
